Results taken from patent US10766960 (dated 2020).
Where two headings read alike, the source gives them in different places. Each block holds one binder with its values, some of them ahead of it.

Tests used:
Assay in all cases: SPR
FcgRIIIa F [1] = molecular target: T1, FcgRIIIa F (human, UniProt P08637)
FcgRIIIa F [2] = molecular target: T1, FcgRIIIa F; remark: listed apart in the source
FcgRIIIa V = FcgRIIIa V (human, UniProt P08637)
FcgRIIb [3] = molecular target: T2, FcgRIIb (human, UniProt P31994)
T2 chain: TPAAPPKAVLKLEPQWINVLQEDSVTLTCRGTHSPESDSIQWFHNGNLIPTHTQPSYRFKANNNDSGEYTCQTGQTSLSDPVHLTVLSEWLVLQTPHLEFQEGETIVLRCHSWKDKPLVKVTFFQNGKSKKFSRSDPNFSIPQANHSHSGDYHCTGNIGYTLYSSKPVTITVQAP

FcgRIa = molecular target: T3, FcgRIa (human, UniProt P12314)
T3 chain: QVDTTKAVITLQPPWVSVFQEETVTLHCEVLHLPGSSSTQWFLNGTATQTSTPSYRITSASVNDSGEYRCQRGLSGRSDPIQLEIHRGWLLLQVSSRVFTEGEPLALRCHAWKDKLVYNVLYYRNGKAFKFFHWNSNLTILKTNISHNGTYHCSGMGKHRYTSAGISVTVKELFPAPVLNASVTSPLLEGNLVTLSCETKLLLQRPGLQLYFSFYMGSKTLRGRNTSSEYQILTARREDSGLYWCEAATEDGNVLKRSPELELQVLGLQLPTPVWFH

FcgRIIb [4] = molecular target: T2, FcgRIIb
FcgRIIIa F [5] = molecular target: T1, FcgRIIIa F; remark: listed apart in the source
FcgRIIa H = molecular target: T4, FcgRIIa H (human, UniProt P12318)
T4 chain: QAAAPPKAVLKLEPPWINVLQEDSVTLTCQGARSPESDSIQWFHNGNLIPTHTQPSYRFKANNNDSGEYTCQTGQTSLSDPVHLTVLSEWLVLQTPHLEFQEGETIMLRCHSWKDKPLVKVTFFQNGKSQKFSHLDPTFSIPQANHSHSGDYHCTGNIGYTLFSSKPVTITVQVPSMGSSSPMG

FcgRIIa R = molecular target: T5, FcgRIIa R (human, UniProt P12318)
T5 chain: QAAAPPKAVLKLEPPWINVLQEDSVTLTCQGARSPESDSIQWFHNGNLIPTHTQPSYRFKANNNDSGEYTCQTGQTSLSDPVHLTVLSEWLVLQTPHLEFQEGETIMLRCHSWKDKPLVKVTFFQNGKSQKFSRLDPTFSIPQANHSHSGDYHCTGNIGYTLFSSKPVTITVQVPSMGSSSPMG

T1 sequence (P08637 17-208): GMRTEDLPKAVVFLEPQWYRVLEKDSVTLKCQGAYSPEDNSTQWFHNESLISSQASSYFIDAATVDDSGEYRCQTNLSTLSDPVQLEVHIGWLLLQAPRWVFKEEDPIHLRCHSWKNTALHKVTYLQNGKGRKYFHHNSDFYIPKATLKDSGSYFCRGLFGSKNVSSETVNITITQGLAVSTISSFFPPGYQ
FcgRIIIa V, sequence (P08637 17-208 F176V): as the sequence (P08637 17-208) above, with F160V counted along it

B2: GpH7-A5/GpH7-B80/GpL16-k0 (antibody)
chain 1: not shown
chain 2: not shown
chain 3: DIVMTQSPLSLPVTPGEPASISCQASESLVHSNRNTYLHWYLQKPGQSPQLLIYKVSNRFSGVPDRFSGSGSGTDFTLKISRVEAEDVGVYYCSQNTHVPPTFGQGTKVEIERTVAAPSVFIFPPSDEQLKSGTASVVCLLNNFYPREAKVQWKVDNALQSGNSQESVTEQDSKDSTYSLSSTLTLSKADYEKHKVYACEVTHQGLSSPVTKSFNRGEC
Kd (FcgRIIIa F [2]): 470 nM

B4: GpH7-A44/GpH7-B80/GpL16-k0 (antibody)
chain 1: QVQLVQSGAEVKKPGASVTVSCKASGYTFTDYEMHWIRQPPGEGLEWIGAIDPKTGDTAYSESFQDRVTLTADKSTSTAYMELSSLTSEDTAVYYCTRFYSYTYWGQGTLVTVSSASTKGPSVFPLAPSSKSTSGGTAALGCLVKDYFPEPVTVSWNSGALTSGVHTFPAVLQSSGLYSLSSVVTVPSSSLGTQTYICNVNHKPSNTKVDKKVEPKSCDKTHTCPPCPAPELLGGPSVFLFPPKPKDTLMISRTPEVTCVVVDVSHEDPEVKFNWYVDGVEVHNAKTKPREEQYNSTYRVVSVLTVLHQDWLNGKEYKCKVSNKALPAPEEKTISKAKGQPREPQVYTLPPSRKELTKNQVSLTCLVKGFYPSDIAVEWESNGQPENNYKTTPPVLDSDGSFFLYSKLTVDKSRWQQGNVFSCSVMHEALHNRYTQKSLSLSP
chain 2: not shown
chain 3: DIVMTQSPLSLPVTPGEPASISCQASESLVHSNRNTYLHWYLQKPGQSPQLLIYKVSNRFSGVPDRFSGSGSGTDFTLKISRVEAEDVGVYYCSQNTHVPPTFGQGTKVEIERTVAAPSVFIFPPSDEQLKSGTASVVCLLNNFYPREAKVQWKVDNALQSGNSQESVTEQDSKDSTYSLSSTLTLSKADYEKHKVYACEVTHQGLSSPVTKSFNRGEC
Kd (FcgRIIIa F [2]): 230 nM

B5: GpH7-A44/GpH7-B3/GpL16-k0 (antibody)
chain 1: QVQLVQSGAEVKKPGASVTVSCKASGYTFTDYEMHWIRQPPGEGLEWIGAIDPKTGDTAYSESFQDRVTLTADKSTSTAYMELSSLTSEDTAVYYCTRFYSYTYWGQGTLVTVSSASTKGPSVFPLAPSSKSTSGGTAALGCLVKDYFPEPVTVSWNSGALTSGVHTFPAVLQSSGLYSLSSVVTVPSSSLGTQTYICNVNHKPSNTKVDKKVEPKSCDKTHTCPPCPAPELLGGPSVFLFPPKPKDTLMISRTPEVTCVVVDVSHEDPEVKFNWYVDGVEVHNAKTKPREEQYNSTYRVVSVLTVLHQDWLNGKEYKCKVSNKALPAPEEKTISKAKGQPREPQVYTLPPSRKELTKNQVSLTCLVKGFYPSDIAVEWESNGQPENNYKTTPPVLDSDGSFFLYSKLTVDKSRWQQGNVFSCSVMHEALHNRYTQKSLSLSP
chain 2: not shown
chain 3: DIVMTQSPLSLPVTPGEPASISCQASESLVHSNRNTYLHWYLQKPGQSPQLLIYKVSNRFSGVPDRFSGSGSGTDFTLKISRVEAEDVGVYYCSQNTHVPPTFGQGTKVEIERTVAAPSVFIFPPSDEQLKSGTASVVCLLNNFYPREAKVQWKVDNALQSGNSQESVTEQDSKDSTYSLSSTLTLSKADYEKHKVYACEVTHQGLSSPVTKSFNRGEC
Kd (FcgRIIIa F [2]): 370 nM

B6: H240-G1d/L73-k0 (antibody)
chain 1: not shown
chain 2: DIQMTQSPSSLSASVGDRVTITCRASQDIHKYIAWYQQKPGQAPRLLIQYTSTLQPGVPSRFSGSGSGTDYTFTISSLQPEDIATYYCLQYEQLRTFGGGTKVEIKRTVAAPSVFIFPPSDEQLKSGTASVVCLLNNFYPREAKVQWKVDNALQSGNSQESVTEQDSKDSTYSLSSTLTLSKADYEKHKVYACEVTHQGLSSPVTKSFNRGEC
Kd (FcgRIIIa V): 310 nM | Kd (FcgRIIb [3]): 6000 nM | Kd (FcgRIa): 0.23 nM | Kd (FcgRIIb [4]): 6100 nM | Kd (FcgRIIIa F [5]): 1400 nM | Kd (FcgRIIa H): 660 nM | Kd (FcgRIIa R): 880 nM

The remaining lines, values ahead:

Kd (FcgRIIIa F [1]): 3.3 nM
B1: GpH7-TA7/GpH7-TA58/GpL16-k0 (antibody)
chain 1: QVQLVQSGAEVKKPGASVTVSCKASGYTFTDYEMHWIRQPPGEGLEWIGAIDPKTGDTAYSESFQDRVTLTADKSTSTAYMELSSLTSEDTAVYYCTRFYSYTYWGQGTLVTVSSASTKGPSVFPLAPSSKSTSGGTAALGCLVKDYFPEPVTVSWNSGALTSGVHTFPAVLQSSGLYSLSSVVTVPSSSLGTQTYICNVNHKPSNTKVDKKVEPKSCDKTHTCPPCPAPEYLWGPSVFLFPPKPKDTLMISRTPEVTCVVVDVSHEDPEVKFNWYVDGVEVHNAKTKPREEQYNATYRVVSVLTVLHQDWLNGKEYKCKVSNKALPAPIEKTISKAKGQPREPQVYTLPPSRKELTKNQVSLTCLVKGFYPSDIAVEWESNGQPENNYKTTPPVLDSDGSFFLYSKLTVDKSRWQQGNVFSCSVMHEALHNRYTQKSLSLSP
chain 2: QVQLVQSGAEVKKPGASVTVSCKASGYTFTDYEMHWIRQPPGEGLEWIGAIDPKTGDTAYSESFQDRVTLTADKSTSTAYMELSSLTSEDTAVYYCTRFYSYTYWGQGTLVTVSSASTKGPSVFPLAPSSKSTSGGTAALGCLVKDYFPEPVTVSWNSGALTSGVHTFPAVLQSSGLYSLSSVVTVPSSSLGTQTYICNVNHKPSNTKVDKKVEPKSCDKTHTCPPCPAPELLGGPDVFLFPPKPKDTLMISRTPEVTCVVVDVSHEDPEVKFNWYVDGVEVHNAKTKPREEQWNSTYRVVSVLTVLHQDWLNGKEYKCKVSNKALPLPEEKTISKAKGQPREPQVYTLPPSRDELTKNQVSLTCLVKGFYPSDIAVEWESNGQPENNYKTTPPVLDSDGSFFLYSKLTVDKSRWQQGNVFSCSVMHEALHNHYTQESLSLSP
chain 3: DIVMTQSPLSLPVTPGEPASISCQASESLVHSNRNTYLHWYLQKPGQSPQLLIYKVSNRFSGVPDRFSGSGSGTDFTLKISRVEAEDVGVYYCSQNTHVPPTFGQGTKVEIERTVAAPSVFIFPPSDEQLKSGTASVVCLLNNFYPREAKVQWKVDNALQSGNSQESVTEQDSKDSTYSLSSTLTLSKADYEKHKVYACEVTHQGLSSPVTKSFNRGEC

Kd (FcgRIIIa F [1]): 2.3 nM
B3: GpH7-TA52/GpH7-B78/GpL16-k0 (antibody)
chain 1: QVQLVQSGAEVKKPGASVTVSCKASGYTFTDYEMHWIRQPPGEGLEWIGAIDPKTGDTAYSESFQDRVTLTADKSTSTAYMELSSLTSEDTAVYYCTRFYSYTYWGQGTLVTVSSASTKGPSVFPLAPSSKSTSGGTAALGCLVKDYFPEPVTVSWNSGALTSGVHTFPAVLQSSGLYSLSSVVTVPSSSLGTQTYICNVNHKPSNTKVDKKVEPKSCDKTHTCPPCPAPEYLWGPSVFLFPPKPKDTLMISRTPEVTCVVVDVSHEDPEVKFNWYVDGVEVHNAKTKPREEQWNATYRVVSVLTVLHQDWLNGKEYKCKVSNKALPAPIEKTISKAKGQPREPQVYTLPPSRKELTKNQVSLTCLVKGFYPSDIAVEWESNGQPENNYKTTPPVLDSDGSFFLYSKLTVDKSRWQQGNVFSCSVMHEALHNRYTQKSLSLSP
chain 2: QVQLVQSGAEVKKPGASVTVSCKASGYTFTDYEMHWIRQPPGEGLEWIGAIDPKTGDTAYSESFQDRVTLTADKSTSTAYMELSSLTSEDTAVYYCTRFYSYTYWGQGTLVTVSSASTKGPSVFPLAPSSKSTSGGTAALGCLVKDYFPEPVTVSWNSGALTSGVHTFPAVLQSSGLYSLSSVVTVPSSSLGTQTYICNVNHKPSNTKVDKKVEPKSCDKTHTCPPCPAPELLGGPDVFLFPPKPKDTLMISRTPEVTCVVVDVSHEDPEVKFNWYVDGVEVHNAKTKPREEQYNSTYRVVSVLTVLHQDWLNGKEYKCKVSNKALPLPEEKTISKAKGQPREPQVYTLPPSRDELTKNQVSLTCLVKGFYPSDIAVEWESNGQPENNYKTTPPVLDSDGSFFLYSKLTVDKSRWQQGNVFSCSVMHEALHNHYTQESLSLSP
chain 3: DIVMTQSPLSLPVTPGEPASISCQASESLVHSNRNTYLHWYLQKPGQSPQLLIYKVSNRFSGVPDRFSGSGSGTDFTLKISRVEAEDVGVYYCSQNTHVPPTFGQGTKVEIERTVAAPSVFIFPPSDEQLKSGTASVVCLLNNFYPREAKVQWKVDNALQSGNSQESVTEQDSKDSTYSLSSTLTLSKADYEKHKVYACEVTHQGLSSPVTKSFNRGEC
